Eleven molecules from paper PMC3271085, “Enhancement of Chemokine Function as an Immunomodulatory Strategy Employed by Human Herpesviruses” (PLoS Pathogens, 2012) can be followed below.

First the molecules themselves.
B1: human CXCL14 (ligand)
chain: SKCKCSRKGPKIRYSDVKKLEMKPKYPHCEEKMVIITTKSVSRYRGQEHCLHPKLQSTKRFIKWYNAWNEKRRVYEE
notes: also called hCXCL14; source: commercially available (Protocol S2)
B2: human CXCL9 (ligand)
chain: TPVVRKGRCSCISTNQGTIHLQSLKDLKQFAPSPSCEKIEIIATLKNGVQTCLNPDSADVKELIKKWEKQVSQKKKQKNGKKHQKKKVLKVRKSQRSRQKKTT
notes: also called hCXCL9; source: commercially available (Protocol S2)
B3: human CXCL13 (ligand)
chain: VLEVYYTSLRCRCVQESSVFIPRRFIDRIQILPRGNGCPRKEIIVWKKNKSIVCVDPQAEWIQRMMEVLRKRSSSTLPVPVFKRKIP
notes: also called hCXCL13; source: commercially available (Protocol S2)
B4: human CCL28 (ligand)
chain: SEAILPIASSCCTEVSHHISRRLLERVNMCRIQRADGDCDLAAVILHVKRRRICVSPHNHTVKQWMKVQAAKKNGKGNVCHRKKHHGKRNSNRAHQGKHETYGHKTPY
notes: also called hCCL28; source: commercially available (Protocol S2)
B5: human CXCL11 (ligand)
chain: FPMFKRGRCLCIGPGVKAVKVADIEKASIMYPSNNCDKIEVIITLKENKGQRCLNPKSKQARLIIKKVERKNF
notes: also called hCXCL11; source: commercially available (Protocol S2)
B6: human CCL22 (ligand)
chain: GPYGANMEDSVCCRDYVRYRLPLRVVKHFYWTSDSCPRPGVVLLTFRDKEICADPRVPWVKMILNKLSQ
B7: human CCL18 (ligand)
chain: AQVGTNKELCCLVYTSWQIPQKFIVDYSETSPQCPKPGVILLTKRGRQICADPNKKWVQKYISDLKLNA
notes: also called hCCL18; source: commercially available (Protocol S2)

Sequence of soluble, secreted form of HSV-2 glycoprotein G (SgG2) (herpes simplex virus type 2) (P13290 23-699): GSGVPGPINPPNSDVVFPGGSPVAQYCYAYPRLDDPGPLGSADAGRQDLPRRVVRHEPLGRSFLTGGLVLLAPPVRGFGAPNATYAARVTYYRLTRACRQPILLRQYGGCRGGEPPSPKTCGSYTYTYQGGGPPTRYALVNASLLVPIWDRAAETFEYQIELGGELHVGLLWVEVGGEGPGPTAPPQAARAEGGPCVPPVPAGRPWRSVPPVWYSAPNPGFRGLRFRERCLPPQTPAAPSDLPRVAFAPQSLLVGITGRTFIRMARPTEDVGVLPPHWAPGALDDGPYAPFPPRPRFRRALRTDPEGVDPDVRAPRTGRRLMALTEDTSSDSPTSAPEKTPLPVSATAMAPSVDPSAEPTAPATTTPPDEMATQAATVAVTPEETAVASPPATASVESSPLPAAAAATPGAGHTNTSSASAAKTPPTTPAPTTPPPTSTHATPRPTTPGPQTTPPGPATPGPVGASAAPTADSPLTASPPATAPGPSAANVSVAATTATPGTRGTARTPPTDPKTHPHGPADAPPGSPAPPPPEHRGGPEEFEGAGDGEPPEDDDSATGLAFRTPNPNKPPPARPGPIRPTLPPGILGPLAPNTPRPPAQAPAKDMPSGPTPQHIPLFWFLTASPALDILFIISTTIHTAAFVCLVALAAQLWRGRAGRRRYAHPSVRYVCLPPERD

This assay concerns the target soluble, secreted form of HSV-2 glycoprotein G (SgG2) (herpes simplex virus type 2) (UniProt P13290). Put plainly: SPR; Biacore X; SgG1 or SgG2 amine-coupled to CM5 chips (dialysed against acetate buffer pH 5.0 for SgG1, pH 5.5 for SgG2); chemokines injected; screening at 100 nM and kinetic conditions as in ref. 16; Biaevaluation 3.2.
For the molecule “human CCL26 (from UniProt Q9Y258 24-94) (ligand)”, the dissociation constant (Kd) – broadly, the equilibrium constant for the complex coming apart – came out at 1.72 nM.
The same measure for “human CXCL10 (from UniProt P02778 22-98) (ligand)”: 5.5 nM.
“human CXCL12β (from UniProt P48061 22-93) (ligand)”: the Kd worked out at 2.2 nM.
Molecule “human CCL25 (from UniProt O15444 24-150) (ligand)” yielded a dissociation constant (Kd) of 1.6 nM.
For B1, the Kd was 4.3 nM.
The same measure for B2: 12.3 nM; for B3: 4.3 nM.
In turn, B4 gave a Kd of 3.2 nM. This Kd and that of the molecule before are within 1.5-fold of each other.
The same measure for B5: 6 nM; for B6: 5.22 nM.
The same measure for B7: 28 nM.
